Test results: patent publication US20240018262A1

Key:
[1] = target: GPC3 expressed on hepatoma cell line HepG2 (human) (UniProt P51654); experiment: flow cytometry on HepG2 cells, secondary antibody alone (background control); mean fluorescence
[2] = target: GPC3 expressed on hepatoma cell line HepG2 (human) (UniProt P51654); experiment: flow cytometry on HepG2 cells, secondary antibody alone (background control); median fluorescence

Chain of GPC3 expressed on hepatoma cell line HepG2 (human) (P51654 25-554 limits assumed): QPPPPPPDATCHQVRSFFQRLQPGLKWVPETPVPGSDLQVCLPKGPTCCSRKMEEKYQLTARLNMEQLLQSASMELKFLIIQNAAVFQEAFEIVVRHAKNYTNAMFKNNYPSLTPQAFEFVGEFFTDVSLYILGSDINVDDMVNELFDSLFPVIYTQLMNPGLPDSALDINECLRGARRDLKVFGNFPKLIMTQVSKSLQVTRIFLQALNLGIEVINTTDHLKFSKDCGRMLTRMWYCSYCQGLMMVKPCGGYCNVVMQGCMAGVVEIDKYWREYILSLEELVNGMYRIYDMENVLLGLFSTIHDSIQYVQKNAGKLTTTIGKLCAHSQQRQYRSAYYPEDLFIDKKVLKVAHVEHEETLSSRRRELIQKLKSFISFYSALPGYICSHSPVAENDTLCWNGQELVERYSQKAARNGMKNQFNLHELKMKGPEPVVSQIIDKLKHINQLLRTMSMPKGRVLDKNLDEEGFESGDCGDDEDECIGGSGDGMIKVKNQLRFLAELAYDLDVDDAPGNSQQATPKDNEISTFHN

Mean [1]: 243 | Median [2]: 205
Substance: PE-conjugated goat anti-mouse IgG (Biolegend Inc., cat #405307) (antibody)
